Measurements from patent US20180155451A1 (published 2018).

T1: FcγRIIa H (human, UniProt P12318 34-217)
T1 construct: extracellular domain; also called FcγRIIa type H; 2aH
T1 sequence (looked up): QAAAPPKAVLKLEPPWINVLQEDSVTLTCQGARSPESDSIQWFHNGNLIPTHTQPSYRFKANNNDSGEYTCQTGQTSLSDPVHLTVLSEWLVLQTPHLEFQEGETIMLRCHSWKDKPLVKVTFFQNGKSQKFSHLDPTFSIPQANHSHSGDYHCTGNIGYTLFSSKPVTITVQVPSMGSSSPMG

T2: FcγRIIb (human, UniProt P31994 43-217)
T2 construct: extracellular domain; also called 2b
T2 sequence (looked up): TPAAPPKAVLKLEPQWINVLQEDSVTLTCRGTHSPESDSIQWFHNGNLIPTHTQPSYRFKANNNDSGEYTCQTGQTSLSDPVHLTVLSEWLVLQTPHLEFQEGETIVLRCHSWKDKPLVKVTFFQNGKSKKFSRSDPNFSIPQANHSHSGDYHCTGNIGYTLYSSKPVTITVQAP

B1: GpH7-A5/GpH7-B3 variant L328_10E/GpL16-k0 (antibody, human IgG1, kappa)
heavy 1: not shown
heavy 2: not shown
light: DIVMTQSPLSLPVTPGEPASISCQASESLVHSNRNTYLHWYLQKPGQSPQLLIYKVSNRFSGVPDRFSGSGSGTDFTLKISRVEAEDVGVYYCSQNTHVPPTFGQGTKVEIERTVAAPSVFIFPPSDEQLKSGTASVVCLLNNFYPREAKVQWKVDNALQSGNSQESVTEQDSKDSTYSLSSTLTLSKADYEKHKVYACEVTHQGLSSPVTKSFNRGEC
notes: heterodimerized IgG1, mutation in one H chain only; also called He Ab
B2: GpH7-A5/GpH7-B3 variant N325_03V/GpL16-k0 (antibody, human IgG1, kappa)
heavy 1: not shown
heavy 2: not shown
light: B1 light
notes: as for B1
B3: GpH7-A5/GpH7-B3 variant K334_05P/GpL16-k0 (antibody, human IgG1, kappa)
heavy 1: not shown
heavy 2: not shown
light: B1 light
notes: as for B1
B4: GpH7-A5/GpH7-B3 variant A327_10E/GpL16-k0 (antibody, human IgG1, kappa)
heavy 1: not shown
heavy 2: not shown
light: B1 light
notes: as for B1
B5: GpH7-A5/GpH7-B3 variant K326_16H/GpL16-k0 (antibody, human IgG1, kappa)
heavy 1: not shown
heavy 2: not shown
light: B1 light
notes: as for B1
B6: GpH7-A5/GpH7-B3 variant K326_15Y/GpL16-k0 (antibody, human IgG1, kappa)
heavy 1: not shown
heavy 2: not shown
light: B1 light
notes: as for B1
B7: GpH7-A5/GpH7-B3 variant N325_04F/GpL16-k0 (antibody, human IgG1, kappa)
heavy 1: not shown
heavy 2: not shown
light: B1 light
notes: as for B1
B8: GpH7-A5/GpH7-B3 variant K326_20W/GpL16-k0 (antibody, human IgG1, kappa)
heavy 1: not shown
heavy 2: not shown
light: B1 light
notes: as for B1
B9: GpH7-A5/GpH7-B3 variant N325_13S/GpL16-k0 (antibody, human IgG1, kappa)
heavy 1: not shown
heavy 2: not shown
light: B1 light
notes: as for B1
B10: GpH7-A5/GpH7-B3 variant K334_18N/GpL16-k0 (antibody, human IgG1, kappa)
heavy 1: not shown
heavy 2: not shown
light: B1 light
notes: as for B1
B11: GpH7-A5/GpH7-B3 variant N325_06M/GpL16-k0 (antibody, human IgG1, kappa)
heavy 1: not shown
heavy 2: not shown
light: B1 light
notes: as for B1
B12: GpH7-A5/GpH7-B3 variant K334_10E/GpL16-k0 (antibody, human IgG1, kappa)
heavy 1: not shown
heavy 2: not shown
light: B1 light
notes: as for B1
B13: GpH7-A5/GpH7-B3 variant K334_02A/GpL16-k0 (antibody, human IgG1, kappa)
heavy 1: not shown
heavy 2: not shown
light: B1 light
notes: as for B1
B14: GpH7-A5/GpH7-B3 variant A327_01G/GpL16-k0 (antibody, human IgG1, kappa)
heavy 1: not shown
heavy 2: not shown
light: B1 light
notes: as for B1
B15: GpH7-A5/GpH7-B3 variant P331_03V/GpL16-k0 (antibody, human IgG1, kappa)
heavy 1: not shown
heavy 2: not shown
light: B1 light
notes: as for B1
B16: GpH7-A5/GpH7-B3 variant L328_04F/GpL16-k0 (antibody, human IgG1, kappa)
heavy 1: not shown
heavy 2: not shown
light: B1 light
notes: as for B1
B17: GpH7-A5/GpH7-B3 variant L328_03V/GpL16-k0 (antibody, human IgG1, kappa)
heavy 1: not shown
heavy 2: not shown
light: B1 light
notes: as for B1
B18: GpH7-A5/GpH7-B3 variant N325_07I/GpL16-k0 (antibody, human IgG1, kappa)
heavy 1: not shown
heavy 2: not shown
light: B1 light
notes: as for B1
B19: GpH7-A5/GpH7-B3 variant P331_06M/GpL16-k0 (antibody, human IgG1, kappa)
heavy 1: not shown
heavy 2: not shown
light: B1 light
notes: as for B1
B20: GpH7-A5/GpH7-B3 variant S267_11K/GpL16-k0 (antibody, human IgG1, kappa)
heavy 1: not shown
heavy 2: not shown
light: B1 light
notes: as for B1
B21: GpH7-A5/GpH7-B3 variant S267_12R/GpL16-k0 (antibody, human IgG1, kappa)
heavy 1: not shown
heavy 2: not shown
light: B1 light
notes: as for B1

Target: T1, FcγRIIa H
Experiment: SPR (Biacore), relative binding vs GpH7-A5/GpH7-B3/GpL16-k0
Protocol: (§1) The heterodimerized antibodies He Abs in which one of the H chains was introduced with an alteration were assayed for their binding activities to each activating FcγR and inhibitory FcγR according to the method described in Example 4. […] The activating FcγRs in FIGS. 26, 27, 28, and 29 are FcγRIa, FcγRIIa (R), FcγRIIa (H), and FcγRIIIa, respectively.
(§2) Analysis of interaction between objective antibody and the FcγR was carried out using Biacore T100 (GE Healthcare). HBS-EP+ (GE Healthcare) was used as the running buffer, and the measurement temperature was set to 25° C. Chips produced by immobilizing the antigen peptide by the amine coupling method to a Series S Sencor Chip CM5 (GE Healthcare), or alternatively, chips produced by allowing preliminarily biotinylated antigen peptides to interact with and immobilize onto a Series S Sensor Chip SA (certified) (GE Healthcare) were used. Antibodies of interest were captured onto an antigen peptide-immobilized chip, and allowed to interact to each FcγR diluted with running buffer. To regenerate and repeatedly use the chip, the antibodies captured on the chip were washed off by reacting 10 mM glycine-HCl, pH 1.5.

Row | He/Con_2aH | Binder
1 | 55.5 % of control He Ab (=100) | B1
2 | 45.2 % of control He Ab (=100) | B2
3 | 97.6 % of control He Ab (=100) | B3
4 | 91.3 % of control He Ab (=100) | B4
5 | 97.9 % of control He Ab (=100) | B5
6 | 98.3 % of control He Ab (=100) | B6
7 | 33.4 % of control He Ab (=100) | B7
8 | 83.3 % of control He Ab (=100) | B8
9 | 79.7 % of control He Ab (=100) | B9
10 | 99.7 % of control He Ab (=100) | B10
11 | 48.2 % of control He Ab (=100) | B11
12 | 98.2 % of control He Ab (=100) | B12
13 | 97 % of control He Ab (=100) | B13
14 | 97.2 % of control He Ab (=100) | B14
15 | 82.5 % of control He Ab (=100) | B15
16 | 71.7 % of control He Ab (=100) | B16
17 | 97.8 % of control He Ab (=100) | B17
18 | 38.1 % of control He Ab (=100) | B18
19 | 85.1 % of control He Ab (=100) | B19

Target: T2, FcγRIIb
Experiment: as above
Protocol: as §1, §2

Row | He/Con_2b | Binder
20 | 12.2 % of control He Ab (=100) | B20
21 | 11.3 % of control He Ab (=100) | B21
22 | 172 % of control He Ab (=100) | B1
23 | 111 % of control He Ab (=100) | B2
24 | 105 % of control He Ab (=100) | B3
25 | 140 % of control He Ab (=100) | B4
26 | 119 % of control He Ab (=100) | B5
27 | 159 % of control He Ab (=100) | B6
28 | 143 % of control He Ab (=100) | B7
29 | 148 % of control He Ab (=100) | B8
30 | 177 % of control He Ab (=100) | B9
31 | 115 % of control He Ab (=100) | B10
32 | 217 % of control He Ab (=100) | B11
33 | 114 % of control He Ab (=100) | B12
34 | 108 % of control He Ab (=100) | B13
35 | 116 % of control He Ab (=100) | B14
36 | 119 % of control He Ab (=100) | B15
37 | 219 % of control He Ab (=100) | B16
38 | 126 % of control He Ab (=100) | B17
39 | 171 % of control He Ab (=100) | B18
40 | 102 % of control He Ab (=100) | B19
